{
  "source": "FireProtDB (doi:10.1021/bi00021a023)",
  "settings": "Saccharomyces cerevisiae (strain ATCC 204508 / S288c), DSC, reversible: yes; for Tm / unfolding enthalpy (calorimetric) / change of melting temperature, mutant - wild type (higher = more stable): pH 4.6, Thermal, Potassium acetate 0.1 M; for denaturant m value / denaturant midpoint (higher = more stable) / unfolding free energy / ddG of mutation (higher = less stable): pH 7, 22 °C, GdnHCl, Potassium phosphate 0.1 M",
  "data": [
    {"substance": "Cytochrome c isoform 1 wild type, P00044", "values": [
      {"measurement": "Tm", "value": 49.2, "unit": "°C"},
      {"measurement": "unfolding enthalpy (calorimetric)", "value": 78.8, "unit": "kcal/mol"},
      {"measurement": "denaturant m value", "value": 4.36, "unit": "kcal/mol/M"},
      {"measurement": "denaturant midpoint (higher = more stable)", "value": 1.34, "unit": "M"},
      {"measurement": "unfolding free energy", "value": 5.86, "unit": "kcal/mol"}
    ]},
    {"substance": "Cytochrome c isoform 1 G12A|N58I, P00044 G12A N58I", "values": [
      {"measurement": "Tm", "setting": "structure 1YCC", "value": 47.4, "unit": "°C"},
      {"measurement": "change of melting temperature, mutant - wild type (higher = more stable)", "setting": "structure 1YCC", "value": -1.8, "unit": "°C"},
      {"measurement": "unfolding enthalpy (calorimetric)", "setting": "structure 1YCC", "value": 64.7, "unit": "kcal/mol"}
    ]},
    {"substance": "Cytochrome c isoform 1 G12S|N58I, P00044 G12S N58I", "values": [
      {"measurement": "ddG of mutation (higher = less stable)", "setting": "structure 1YCC", "value": 0.31, "unit": "kcal/mol"},
      {"measurement": "denaturant m value", "setting": "structure 1YCC", "value": 4.75, "unit": "kcal/mol/M"},
      {"measurement": "denaturant midpoint (higher = more stable)", "setting": "structure 1YCC", "value": 1.17, "unit": "M"},
      {"measurement": "unfolding free energy", "setting": "structure 1YCC", "value": 5.55, "unit": "kcal/mol"}
    ]},
    {"substance": "Cytochrome c isoform 1 N58I, P00044", "values": [
      {"measurement": "Tm", "setting": "structure 1YCC", "value": 62.2, "unit": "°C"},
      {"measurement": "change of melting temperature, mutant - wild type (higher = more stable)", "setting": "structure 1YCC", "value": 13, "unit": "°C"},
      {"measurement": "unfolding enthalpy (calorimetric)", "setting": "structure 1YCC", "value": 101, "unit": "kcal/mol"}
    ]},
    {"substance": "Cytochrome c isoform 1 G12A, P00044", "values": [
      {"measurement": "ddG of mutation (higher = less stable)", "setting": "structure 1YCC", "value": 3.5, "unit": "kcal/mol"},
      {"measurement": "denaturant m value", "setting": "structure 1YCC", "value": 5.4, "unit": "kcal/mol/M"},
      {"measurement": "denaturant midpoint (higher = more stable)", "setting": "structure 1YCC", "value": 0.44, "unit": "M"},
      {"measurement": "unfolding free energy", "setting": "structure 1YCC", "value": 2.36, "unit": "kcal/mol"}
    ]}
  ]
}
